This is an account of results in the RNAGym collection of RNA variant scans (doi:10.7554/elife.80360).

B1: CPEB3 Ribozyme (parent)
chain: GGGGGCCACAGCAGAAGCGUUCACGUCGCGGCCCCUGUCAGAUUCUGGUGAAUCUGCGAAUUCUGCUGU

Variants of B1 are the subject of the series. The experiment in a line: self-cleavage, relative activity (ratio to wild type); higher = more cleavage; co-transcriptional.
Regarding G1U A59U, the self-cleavage amounted to 0.114. For G1U A59C the value was 0.0892; for G1U A59G, 0.148; for G1U G17U, 0.0803. With G1U A42C, the self-cleavage is 0.0921.

For the variant G1U A42G, the self-cleavage was 0.0976.

Take G1U A42U: the self-cleavage turned out to be 0.0891. For the variant G1C U69A, the self-cleavage was 0.182. Regarding G1U A10U, the self-cleavage stood at 0.127. For G1U G37A the value was 0.0613; for G1U, 0.11. G1U G5C: the self-cleavage worked out at 0.0789.

G1U A15C: the self-cleavage was 0.136. For G1U A15G the value was 0.191; for G1U G56C, 0.105. To G1U G56U belongs 0.108; to G1U G14C, 0.133; to G1U G14A, 0.118. In the case of G1C U53A, the self-cleavage amounted to 0.225. To G1C U53G belongs 0.232. To G1U U55A belongs 0.109; to G1U U55C, 0.0608; to G1U U55G, 0.118. Take G1U U69A: the self-cleavage was 0.194. For G1U U69G the value was 0.265; for G1C U36A, 0.0531; for G1C U36C, 0.177. Turning to G2A C63U, the self-cleavage is 0.173. For G2A C63G the value was 0.0931.

In the case of G2A U38A, the self-cleavage turned out to be 0.134. Regarding G2A U38C, the self-cleavage was determined as 0.117. With G2A G31A, the self-cleavage was found to be 0.0613.

As to G1U G68U, the self-cleavage turned out to be 0.173. To G1U G68A belongs 0.129. For G1U G68C the value was 0.0929; for G2A A10G, 0.201. On to G2A A10C, for which the self-cleavage was determined as 0.259.

For G2A C12G, the self-cleavage was found to be 0.123. For G2A G56C the value was 0.0906; for G2A G56A, 0.1. For G2A G56U the value was 0.0991; for G2A U67A, 0.281. For the variant G2A U67C, the self-cleavage stood at 0.242. For G2A U67G the value was 0.167. For G1C U67C the value was 0.19. For G1C U67A, the self-cleavage was found to be 0.193.

Regarding G2A C57A, the self-cleavage came out at 0.0762.

With G2A C57G, the self-cleavage was determined as 0.047.

On to G2A C57U, for which the self-cleavage worked out at 0.0401. To G1U C32A belongs 0.201. To G1U C32U belongs 0.157; to G1U C32G, 0.09.

Regarding G2A A15C, the self-cleavage was found to be 0.0708.

Regarding G2A A15U, the self-cleavage worked out at 0.0881. For G1U G28A the value was 0.0369; for G1U G28C, 0.0671; for G2A A52G, 0.242. For G2A A52U, the self-cleavage came to 0.12. In the case of G1U G30U, the self-cleavage came to 0.0366. To G1U G30C belongs 0.0755; to G1U U38C, 0.0816; to G1U U38G, 0.0202. To G2A U36A belongs 0.0357. For G2A U36G the value was 0.209; for G2A U36C, 0.129; for G2A G41U, 0.0833.

As to G2A G41A, the self-cleavage was found to be 0.0631. Consider G1U C63A, for which the self-cleavage came to 0.101.

In the case of G1U C63U, the self-cleavage was 0.0897. To G2A A23C belongs 0.111. For G2A A23G the value was 0.15; for G1C U62A, 0.279; for G1C U62G, 0.177. In the case of G1U U62C, the self-cleavage was found to be 0.0771. For G1U U62A the value was 0.137. For G1U U62G the value was 0.0907.

In the case of G1C U55A, the self-cleavage was determined as 0.189. To G1C U55C belongs 0.167. To G1U G58C belongs 0.128; to G1U G58U, 0.137. For G2C A8U the value was 0.0675; for G2C A8C, 0.039; for G2A C18U, 0.0628. On to G2A U61C, for which the self-cleavage stood at 0.0999. With G1C U49G, the self-cleavage was determined as 0.275. For G1C U49C the value was 0.116; for G2A C32U, 0.0612; for G1U C22A, 0.0628. For G1U C22G the value was 0.0638; for G1U C22U, 0.102; for G1C U64A, 0.236. For G1C U64C the value was 0.179; for G1U U64G, 0.117. In the case of G1U U64C, the self-cleavage was determined as 0.0613. To G1U U64A belongs 0.0494.

As for G1U U44C, the self-cleavage was determined as 0.106. Turning to G1U U44G, the self-cleavage is 0.127. G1U U44A: the self-cleavage came to 0.0951. For G2A G17A the value was 0.0268; for G2A G17U, 0.0353.

For the variant G1U A52G, the self-cleavage stood at 0.167. To G1U A52U belongs 0.129; to G2A G58U, 0.221; to G2A G58C, 0.106. For G2A G58A the value was 0.0846. To G2A G11A belongs 0.101; to G2A G11C, 0.0914. Take G2A G11U: the self-cleavage stood at 0.117. For G2A C9U the value was 0.493.

For the variant G2A C9G, the self-cleavage was found to be 0.411. For G2A C9A the value was 0.435. For G1U C39A the value was 0.123; for G1U C39U, 0.0961. Consider G1U A16C, for which the self-cleavage amounted to 0.022.

With G2A C66A, the self-cleavage worked out at 0.0939.

As to G2A C66G, the self-cleavage was 0.101. To G2A C66U belongs 0.236. For G2A C7A, the self-cleavage worked out at 0.0557. Turning to G2A C7U, the self-cleavage came out at 0.0501. For G2A U44C the value was 0.123. As to G1C G47U, the self-cleavage came to 0.268. To G1U A51G belongs 0.126; to G1U A51C, 0.114; to G1U A51U, 0.148. For G1U C66A, the self-cleavage stood at 0.0594. As for G1U C66G, the self-cleavage worked out at 0.0803.

As for G2A G5C, the self-cleavage was found to be 0.122. For the variant G2A G5A, the self-cleavage was determined as 0.0392.

For the variant G1U G50C, the self-cleavage was 0.0733. To G1U G50U belongs 0.056. On to G2A A51G, for which the self-cleavage came to 0.158. As to G2A A51U, the self-cleavage is 0.233. For the variant G2A A51C, the self-cleavage amounted to 0.0717. For G2A U21G the value was 0.0545; for G2A U21A, 0.114; for G2A U21C, 0.0698. On to G2A G19U, for which the self-cleavage was found to be 0.0445. Turning to G2A G19A, the self-cleavage came out at 0.0283. For G1U G48C the value was 0.0782.

In the case of G1U G48U, the self-cleavage worked out at 0.079. To G1U G48A belongs 0.192; to G2A A8U, 0.199; to G2A A8G, 0.105. On to G1U A13U, for which the self-cleavage turned out to be 0.122.

In the case of G1C G50U, the self-cleavage is 0.169. In the case of G2A G37C, the self-cleavage is 0.0177. For G2A G37A, the self-cleavage turned out to be 0.0498. Regarding G2A G37U, the self-cleavage is 0.0408. For G1C G68C the value was 0.219; for G1C G68U, 0.297. In the case of G1C G68A, the self-cleavage worked out at 0.304. To G2A C45G belongs 0.217. Take G1U G2C: the self-cleavage worked out at 0.333. For G1U G2A the value was 0.0657. Turning to G2A G65C, the self-cleavage was found to be 0.122. To G2A G65U belongs 0.067; to G1U U21G, 0.0804; to G1U U21C, 0.119.

As for G2A U53G, the self-cleavage stood at 0.109.

Turning to G2A U43G, the self-cleavage came to 0.144. Consider G2A U43A, for which the self-cleavage worked out at 0.139. For G2A U43C the value was 0.123. On to G2A C35G, for which the self-cleavage stood at 0.0841. To G2A C35U belongs 0.542. With G2A C35A, the self-cleavage was 0.0641.

For G1U U43C, the self-cleavage amounted to 0.127.

Turning to G1U U43G, the self-cleavage stood at 0.113.
